Laboratory results: US20220127354A1 (Amgen, published 2022)

What was measured:
Assay in all cases: flow cytometry, transfected 293T cells
[1] = target: T1, muCDH19(44-770) with Flag tag (construct I, Mu EC1-5) (mouse)
T1 construct: leader left out; the entry starts at residue 44; also called Mo EC1-5; mouse Cadherin19
T1 chain: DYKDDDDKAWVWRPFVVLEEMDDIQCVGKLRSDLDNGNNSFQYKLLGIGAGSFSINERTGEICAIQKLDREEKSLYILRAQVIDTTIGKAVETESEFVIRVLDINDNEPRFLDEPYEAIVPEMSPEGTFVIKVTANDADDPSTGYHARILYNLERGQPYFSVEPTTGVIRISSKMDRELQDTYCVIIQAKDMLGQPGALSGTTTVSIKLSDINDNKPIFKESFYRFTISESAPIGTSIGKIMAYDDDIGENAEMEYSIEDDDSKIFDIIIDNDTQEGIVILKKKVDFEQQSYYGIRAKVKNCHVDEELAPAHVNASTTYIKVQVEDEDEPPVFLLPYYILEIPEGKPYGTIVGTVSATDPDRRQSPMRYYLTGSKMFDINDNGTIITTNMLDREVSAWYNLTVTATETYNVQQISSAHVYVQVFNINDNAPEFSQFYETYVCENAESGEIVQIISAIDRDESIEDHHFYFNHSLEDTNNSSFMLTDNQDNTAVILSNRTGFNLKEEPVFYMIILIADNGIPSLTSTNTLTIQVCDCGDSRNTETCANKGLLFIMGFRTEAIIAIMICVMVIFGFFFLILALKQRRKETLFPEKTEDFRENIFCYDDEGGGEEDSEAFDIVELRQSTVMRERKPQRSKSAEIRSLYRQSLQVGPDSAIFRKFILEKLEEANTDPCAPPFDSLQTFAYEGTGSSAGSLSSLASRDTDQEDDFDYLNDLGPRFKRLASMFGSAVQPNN
Text: (§1) The experiment included assaying the anti-CDH19 antibodies against mouse Cadherin19 to determine suitability for binning on these human/mouse chimeras.

[2] = target: T2, muCDH19(44-362)::huCDH19(365-772) with Flag tag (construct G, Hu EC4-5) (human/mouse chimera)
T2 construct: leader left out; the entry starts at residue 44; also called C137917
T2 chain: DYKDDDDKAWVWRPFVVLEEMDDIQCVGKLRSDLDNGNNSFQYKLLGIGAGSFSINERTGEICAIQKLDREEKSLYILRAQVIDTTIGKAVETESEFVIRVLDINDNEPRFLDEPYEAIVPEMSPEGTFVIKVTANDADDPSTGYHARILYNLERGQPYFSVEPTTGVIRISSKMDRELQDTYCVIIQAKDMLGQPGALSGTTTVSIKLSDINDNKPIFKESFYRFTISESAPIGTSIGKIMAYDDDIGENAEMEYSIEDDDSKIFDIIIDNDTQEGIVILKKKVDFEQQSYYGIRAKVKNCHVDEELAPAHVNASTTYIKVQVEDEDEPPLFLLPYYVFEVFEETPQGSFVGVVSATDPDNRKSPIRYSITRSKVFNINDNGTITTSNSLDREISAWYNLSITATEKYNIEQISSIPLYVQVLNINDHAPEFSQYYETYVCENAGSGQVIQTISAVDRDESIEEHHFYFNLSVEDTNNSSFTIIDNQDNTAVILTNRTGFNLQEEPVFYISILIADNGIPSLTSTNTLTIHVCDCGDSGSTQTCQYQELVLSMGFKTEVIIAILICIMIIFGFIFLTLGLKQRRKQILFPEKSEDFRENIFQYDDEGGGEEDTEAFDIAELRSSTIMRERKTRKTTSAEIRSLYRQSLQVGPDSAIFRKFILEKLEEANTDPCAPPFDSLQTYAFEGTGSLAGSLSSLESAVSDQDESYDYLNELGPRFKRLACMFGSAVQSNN
Text: as §1

[3] = target: T3, muCDH19(44-247)::huCDH19(250-364)::muCDH19(363-770) with Flag tag (construct F, Hu EC3) (human/mouse chimera)
T3 construct: leader left out; the entry starts at residue 44; also called C137911
Text: as §1

[4] = target: T4, muCDH19(44-139)::huCDH19(142-249)::muCDH19(248-770) with Flag tag (construct D, Hu EC2) (human/mouse chimera)
T4 construct: leader left out; the entry starts at residue 44; also called C137913
T4 chain: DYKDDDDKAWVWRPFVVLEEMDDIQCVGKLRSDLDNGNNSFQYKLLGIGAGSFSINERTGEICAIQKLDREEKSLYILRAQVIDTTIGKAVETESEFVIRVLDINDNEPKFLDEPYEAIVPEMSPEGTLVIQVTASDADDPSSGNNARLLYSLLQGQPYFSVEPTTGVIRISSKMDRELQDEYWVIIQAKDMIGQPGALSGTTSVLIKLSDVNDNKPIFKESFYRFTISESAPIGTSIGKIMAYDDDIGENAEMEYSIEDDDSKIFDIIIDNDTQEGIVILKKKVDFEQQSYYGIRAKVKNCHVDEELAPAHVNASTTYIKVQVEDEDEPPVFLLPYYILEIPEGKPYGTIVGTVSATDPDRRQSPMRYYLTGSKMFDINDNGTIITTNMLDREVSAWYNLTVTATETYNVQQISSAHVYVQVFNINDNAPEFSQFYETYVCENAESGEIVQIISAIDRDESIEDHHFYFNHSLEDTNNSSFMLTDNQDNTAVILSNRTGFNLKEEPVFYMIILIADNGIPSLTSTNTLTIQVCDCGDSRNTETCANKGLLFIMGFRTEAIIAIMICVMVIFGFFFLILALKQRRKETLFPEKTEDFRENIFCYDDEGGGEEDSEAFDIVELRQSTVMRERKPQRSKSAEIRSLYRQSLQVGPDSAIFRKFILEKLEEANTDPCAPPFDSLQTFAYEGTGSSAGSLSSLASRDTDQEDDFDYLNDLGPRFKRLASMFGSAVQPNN
Text: as §1

[5] = target: huCDH19(44-772) with Flag tag (construct A, Hu EC1-5) (human, UniProt Q9H159 44-772)
Text: as §1

[6] = target: T5, muCDH19(44-461)::huCDH19(464-772) with Flag tag (construct H, Hu EC5) (human/mouse chimera)
T5 construct: leader left out; the entry starts at residue 44; also called C137915
T5 chain: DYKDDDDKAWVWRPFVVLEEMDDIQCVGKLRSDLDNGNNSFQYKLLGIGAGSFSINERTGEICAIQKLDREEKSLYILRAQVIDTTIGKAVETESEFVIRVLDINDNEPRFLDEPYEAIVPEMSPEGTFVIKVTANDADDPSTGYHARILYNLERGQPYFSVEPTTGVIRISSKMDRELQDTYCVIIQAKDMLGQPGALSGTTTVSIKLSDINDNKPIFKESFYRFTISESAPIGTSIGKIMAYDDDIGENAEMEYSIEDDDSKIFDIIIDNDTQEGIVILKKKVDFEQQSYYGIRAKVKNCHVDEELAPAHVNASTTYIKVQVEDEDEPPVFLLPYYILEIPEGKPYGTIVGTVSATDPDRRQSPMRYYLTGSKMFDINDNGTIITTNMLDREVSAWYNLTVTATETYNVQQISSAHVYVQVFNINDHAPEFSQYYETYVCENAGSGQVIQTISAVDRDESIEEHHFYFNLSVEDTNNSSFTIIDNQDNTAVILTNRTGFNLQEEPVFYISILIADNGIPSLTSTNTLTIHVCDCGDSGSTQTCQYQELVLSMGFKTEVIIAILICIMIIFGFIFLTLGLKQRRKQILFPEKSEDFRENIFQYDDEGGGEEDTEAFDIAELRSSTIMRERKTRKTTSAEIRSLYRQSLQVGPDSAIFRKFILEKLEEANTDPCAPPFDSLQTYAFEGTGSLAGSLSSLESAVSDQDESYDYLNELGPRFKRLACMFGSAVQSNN
Text: as §1

[7] = target: T6, muCDH19(44-139)::huCDH19(142-364)::muCDH19(363-770) with Flag tag (construct E, Hu EC2-3) (human/mouse chimera)
T6 construct: leader left out; the entry starts at residue 44; also called C137847
Text: as §1

[8] = target: T7, huCDH19(44-141)::muCDH19(140-770) with Flag tag (construct B, Hu EC1) (human/mouse chimera)
T7 construct: leader left out; the entry starts at residue 44; also called C137897
Text: as §1

[9] = target: T8, huCDH19(44-249)::muCDH19(248-770) with Flag tag (construct C, Hu EC1-2) (human/mouse chimera)
T8 construct: leader left out; the entry starts at residue 44; also called C137896
Text: as §1

Measured: binding result

B1: hu anti-<huCDH19> 2G6 (1-477)(R17G) VH::huIgG1z + 23A10.3 (1-231)(C42S) VL::huLLC-C2 (Ab ID 14304) (antibody, V domains shown)
VH: QVQLVESGGGVVQPGGSLRLSCAASGFTFSSYGMHWVRQAPGKGLEWVAFIWYDGSNKYYADSVKDRFTISRDNSKNTLYLQMKSLRAEDTAVYYCARRAGIIGTIGYYYGMDVWGQGTTVTVSS
VL: SYELTQPPSVSVSPGQTASITCSGDRLGEKYVSWYQQKPGQSPILVIYQDNKWPSGIPERFSGSNSGNTATLTISGTQAMDEADYYCQAWDSSTVVFGGGTKLTVLG
notes: light chain is that of 23A10.3 (C42S); Bin 4
binds: [1] | [2] | [3] | [4] | [5] | [6] | [7] | [8] | [9]

B2: hu anti-<huCDH19> 2G6 (1-477)(R17G,D61E,D72E,K94N) VH::huIgG1z + 2G6 (1-234)(C42S,D110E) VL::huLLC-C1 (Ab ID 14039) (antibody, V domains shown)
VH: QVQLVESGGGVVQPGGSLRLSCAASGFTFSSYGMHWVRQAPGKGLEWVAFIWYEGSNKYYAESVKDRFTISRDNSKNTLYLQMNSLRAEDTAVYYCARRAGIIGTIGYYYGMDVWGQGTTVTVSS
VL: SYELTQPPSVSVSPGQTASITCSGDRLGEKYTSWYQQRPGQSPLLVIYQDTKRPSGIPERFSGSNSGNTATLTISGTQAMDEADYYCQAWESSTVVFGGGTKLTVLG
notes: Engineered variant of 2G6; the entries already carry the changes; Bin 4
binds: [1] | [2] | [3] | [4] | [5] | [6] | [7] | [8] | [9]
